Test results taken from US20260250410A1 (SICHUAN HUIYU PHARMACEUTICAL, published 2026).

Assays:
[1] = target: T1, human CDCP1 on tumor cells (human, UniProt Q9H5V8 30-836); assay: flow cytometry, MDA-MB-231 cells
T1 construct: whole, on cells; cell line is named under assay or readout
T1 sequence (looked up): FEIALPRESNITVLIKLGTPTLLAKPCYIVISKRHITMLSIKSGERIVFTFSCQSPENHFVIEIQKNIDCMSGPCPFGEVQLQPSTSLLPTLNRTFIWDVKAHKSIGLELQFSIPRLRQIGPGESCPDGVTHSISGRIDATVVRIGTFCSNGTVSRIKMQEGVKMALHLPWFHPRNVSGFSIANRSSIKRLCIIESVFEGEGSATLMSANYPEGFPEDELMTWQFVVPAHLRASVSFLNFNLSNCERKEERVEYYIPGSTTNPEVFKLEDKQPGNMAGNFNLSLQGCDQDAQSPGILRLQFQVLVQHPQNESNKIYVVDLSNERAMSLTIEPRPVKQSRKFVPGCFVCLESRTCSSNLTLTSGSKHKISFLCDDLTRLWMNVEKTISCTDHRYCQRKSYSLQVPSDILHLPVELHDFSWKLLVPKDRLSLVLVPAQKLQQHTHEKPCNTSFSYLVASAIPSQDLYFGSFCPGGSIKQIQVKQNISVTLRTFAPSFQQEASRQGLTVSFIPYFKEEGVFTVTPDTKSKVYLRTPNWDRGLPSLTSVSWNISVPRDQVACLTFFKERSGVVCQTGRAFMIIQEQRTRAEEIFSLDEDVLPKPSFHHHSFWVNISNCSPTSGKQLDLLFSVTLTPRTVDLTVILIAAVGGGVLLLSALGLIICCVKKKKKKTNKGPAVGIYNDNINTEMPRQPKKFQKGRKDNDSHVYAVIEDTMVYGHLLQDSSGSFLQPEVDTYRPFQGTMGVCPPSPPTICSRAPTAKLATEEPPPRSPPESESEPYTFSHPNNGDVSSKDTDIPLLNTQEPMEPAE
Procedure: (§1) Flow cytometry was used to detect the binding capacity of antibody to tumor cells. […] 2.0×10⁴ tumor cells were added per well, respectively, and 50 μL (PBS+2% FBS) were added, and after blocking at room temperature with an Fe blocker (Human TruStain FcX™, Biolegend, 422302) for 10 mins, an anti-CDCP1 murine monoclonal antibody at a final concentration of 200 nM was added. The obtained mixture was subjected to a 3-fold serial dilution across 8 concentration points, and incubated at 4° C. for 30 mins, and then incubated with a secondary antibody (PE anti-human IgG Fc Antibody, Biolegend, 410708), detection was performed using a flow cytometer.

[2] = target: T1, human CDCP1 on tumor cells; assay: flow cytometry, PC3 cells
Procedure: as §1

HuCDCP1-C = target: T2, HuCDCP1-C (human, UniProt Q9H5V8 30-667); assay: SPR (Caterra), antigen immobilized
T2 construct: range 30-667; expressed in HEK-293T, purified by Fc/his tag; also called human CDCP1-C; full-length extracellular domain of human CDCP1; not shown: Fc or his tag
T2 sequence (looked up): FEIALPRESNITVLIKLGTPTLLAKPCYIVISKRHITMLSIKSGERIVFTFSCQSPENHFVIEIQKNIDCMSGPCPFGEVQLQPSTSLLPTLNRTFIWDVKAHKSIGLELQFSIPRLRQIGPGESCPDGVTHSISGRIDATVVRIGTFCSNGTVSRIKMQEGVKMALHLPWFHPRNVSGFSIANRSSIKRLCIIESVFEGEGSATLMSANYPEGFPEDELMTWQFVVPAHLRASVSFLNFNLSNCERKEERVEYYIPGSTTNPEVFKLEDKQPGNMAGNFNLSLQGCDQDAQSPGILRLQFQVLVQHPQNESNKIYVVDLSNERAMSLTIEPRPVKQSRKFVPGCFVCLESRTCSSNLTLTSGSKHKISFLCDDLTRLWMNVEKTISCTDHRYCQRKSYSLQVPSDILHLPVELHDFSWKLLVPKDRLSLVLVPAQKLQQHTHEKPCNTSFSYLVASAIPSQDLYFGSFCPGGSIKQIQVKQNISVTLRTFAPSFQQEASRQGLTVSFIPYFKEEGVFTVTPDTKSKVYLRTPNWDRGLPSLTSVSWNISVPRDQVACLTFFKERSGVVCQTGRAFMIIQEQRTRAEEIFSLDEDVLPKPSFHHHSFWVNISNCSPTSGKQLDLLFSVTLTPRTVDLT
Procedure: (§2) The humanized anti-CDCP1 antibodies obtained from Example 11 were subjected to gene cloning, constructed into pTT5 expression vector for a small amount of expression in CHO cells (Expi-CHOS: Gibco A29127), and purified with an Fc affinity column (AT Protein A Diamond Plus. No. AA402312). Antibody purity was analyzed by HPLC and determined by Nanodrop. High-throughput affinity assay was carried out for a small amount of antibodies by Caterra.

MsCDCP1 = target: T3, MsCDCP1 (mouse, UniProt Q5U462 30-666); assay: SPR (Caterra), antigen immobilized
T3 construct: extracellular domain; also called mouse CDCP1; not shown: Fc or his tag
T3 sequence (looked up): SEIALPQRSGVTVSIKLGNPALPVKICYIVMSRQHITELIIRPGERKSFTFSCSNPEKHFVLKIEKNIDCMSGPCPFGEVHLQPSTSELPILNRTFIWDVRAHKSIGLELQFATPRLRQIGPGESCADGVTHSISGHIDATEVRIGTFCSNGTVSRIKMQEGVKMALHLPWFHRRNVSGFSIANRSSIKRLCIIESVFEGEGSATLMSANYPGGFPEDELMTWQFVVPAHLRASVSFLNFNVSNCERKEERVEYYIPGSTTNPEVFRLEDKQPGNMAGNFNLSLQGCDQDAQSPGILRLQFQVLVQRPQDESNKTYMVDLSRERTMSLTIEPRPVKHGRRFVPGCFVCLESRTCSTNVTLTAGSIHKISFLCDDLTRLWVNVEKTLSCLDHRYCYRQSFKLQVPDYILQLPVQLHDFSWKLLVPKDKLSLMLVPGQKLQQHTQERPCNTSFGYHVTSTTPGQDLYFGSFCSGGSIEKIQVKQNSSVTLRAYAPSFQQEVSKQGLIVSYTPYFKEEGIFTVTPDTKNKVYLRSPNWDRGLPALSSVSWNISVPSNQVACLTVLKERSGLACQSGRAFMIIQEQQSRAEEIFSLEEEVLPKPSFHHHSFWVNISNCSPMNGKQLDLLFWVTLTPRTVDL
Procedure: as §2
Further, Partial anti-CDCP1 humanized antibodies were selected for expression, and then the affinity of the antibodies to the antigens Hu-CDCP1-A, Hu-CDCP1-B, Cyno-CDCP1, and Ms-CDCP1 was detected according to the above affinity detection method.

B1: 12E6 (antibody, V domains shown)
VH: EVQLKESGPGILQPSQTLSLTCSFSGFSLSTSGMGVGWIRQPSGKGLEWLAHIWWDDVKLYNPALKSRLTISKETSNNQVFLKIASVDAADTATYYCARIDHGYGSNYWDFDVWGAGTTVTVSS
VL: DIVMTQAAPSVPVTPGGSVSISCRSTKSLLHSDGKTYLYWFLQRPGQSPQLLIYRMSNLASGVPDRFSGSGSGTAFTLRISRVEAEDVGVYYCMQHLEYPFTFGSGTKLEIK
notes: murine hybridoma mAb
[1]
  EC50: 85.5 nM
[2]
  EC50: 10.1 nM

B2: 8E5 (antibody, V domains shown)
VH: EVQLKESGPELKKPGETVKISCKASGYTLTDFSMHWLKQAPGKGLKWMGWINTETGAPTYADDFKGRFALSLDTSANTAYLQINNLKNEDTATYFCSRGRDYDPHFDYWGQGTTVTVSS
VL: EIVLTQSPATLSVTPGDRVSLSCRASQSISDFLHWYQQRSHESPRLLIKYASQSISGIPSRFGGSGSGSDFTLNINTVEPEDVGMYYCQSAHSFPYTFGGGTKLEIK
notes: murine hybridoma mAb; also called 8ES
[1]
  EC50: 0.67 nM
[2]
  EC50: 0.63 nM

B3: G10F6 (antibody, V domains shown)
VH: EVKLVESGPGILQPSQTLSLTCSFSGFSLSTSGMGVSWVRQPSGKGLEWLAHIYWDDDKRYNPSLKGRLTISKDTPRNQVFLEITSVDTTDTATYYCARVPGNWDEDAMDYWGQGTTVTVSS
VL: DIQMTQSPLSLPVSLGDQASISCRSSQNIVHTNGNTYLEWYLQKVGQSPKLLIYKVSNRFSGVPDRFSGSGSGTDFTLKISRVEAEDLGVYYCFQGSHVPYTFGGGTKLEIK
notes: murine hybridoma mAb
[1]
  EC50: 0.19 nM
[2]
  EC50: 0.23 nM

B4: 1CP-117 (antibody, human IgG1, kappa, V domains shown)
VH: QVQLVQSGSELKKPGASVKVSCKASGYTLTDFSMHWVRQAPGQGLEWMGWINTETGAPTYADDFKGRFVLSLDTSVSTAYLQISSLKAEDTAVYYCSRGRDYDPHFDYWGQGTLVTVSS
VL: EIVLTQSPATLSLSPGERATLSCRASQSISDFLHWYQQKPGQSPRLLIKYASQSISGIPARFSGSGSGSDFTLTISSVEPEDFAVYYCQSAHSFPYTFGQGTKLEIKR
notes: humanized 8E5, human IgG1 kappa
HuCDCP1-C
  Kd: 0.259 nM
  koff: 3.93e-05 s⁻¹
  kon: 152000 M⁻¹ s⁻¹
MsCDCP1
  Kd: 212 nM

B5: 3C11 (antibody, V domains shown)
VH: EVQLQQSGTVLARPGASVKMSCKASGYNFISYWLHWIKQRPGQGLEWIGGIYPGNTDTTYNQKFKGKAKVTAVTSATTAYMELSSLTNEDSAVYYCIRYDYDRGMDYWGQGTTVTVSS
VL: DIQMTQSPSSFSVSLGDRVTITCRASEDIYYRLAWYQQKPGNAPRLLISGATALETGVPSRFSGSGSGKDYTLSITSLQTEDVATYYCQHYWNIPWTFGGGTKLEIK
notes: murine hybridoma mAb
[1]
  EC50: 0.27 nM
[2]
  EC50: 0.23 nM

B6: 6A7 (antibody, V domains shown)
VH: EVQLKESGAELVRPGASVKVSCKASGYSFTSYWMNWVKQRPGQGLEWIGMIHPSDSETKLNQKFRDRASLTVDKSSSTAYMQLSSPTSEDSAVYYCTINYESFYYAMDYWGQGTTVTVSS
VL: DIVMTQSPASLAVSLGQRATISCRASKSVSTSGYSYMHWYQQKPGQPPKLLLYLASNLESGVPARFSGSGSGADFTLNIHPVEEEDAATYYCLHSRELPYTFGGGTKLEIK
notes: murine hybridoma mAb
[1]
  EC50: 1.72 nM
[2]
  EC50: 1.35 nM

B7: 3B12H5 (antibody, V domains shown)
VH: EVQLQQSGTVLARPGASVKMSCKASGYSFTIYWVHWVKQRPGQGLEWIGAVYPGNDDTSYNQNFKGKAKLTAVTSATTAYMELSSLTIDDSAVYYCTRHTYDEVFDYWGQGTTVTVSS
VL: DIVMTQSPSSLSVSLGDRVTITCKASEDIYYRLAWYQQKPGNAPRLLISGGTNLEAGIPSRFSGSGSGKDYTLSITSLQTEDVAIYYCQHYWNTPWTFGGGTKLEIK
notes: murine hybridoma mAb; also called 3B12HS
[1]
  EC50: 0.47 nM
[2]
  EC50: 0.55 nM

B8: 5B8 (antibody, V domains shown)
VH: EVQLKESGGGLVQPGGSLRISCATSGLTFTHYHMSWVRQPPGKAPEWLAIIRNKAYGYTTDYSASVRGRFTISRDDSQSILYLQMNTLRAEDSATYYCVREGGYGYDGTFAYWGQGTTVTVSS
VL: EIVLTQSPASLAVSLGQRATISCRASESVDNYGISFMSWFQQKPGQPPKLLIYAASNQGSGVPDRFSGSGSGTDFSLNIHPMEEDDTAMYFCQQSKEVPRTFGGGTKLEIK
notes: murine hybridoma mAb
[1]
  EC50: 0.93 nM
[2]
  EC50: 0.91 nM

B9: 8C9 (antibody, V domains shown)
VH: EVQLKESGGGLVQPGGSLRISCATSGLTFTHYHMSWVRQPPGKAPEWLAIIRNKAYGYTTDYSASVRGRFTISRDDSQSILYLQMNTLRPEDSATYYCVREGGYGYDGTFAYWGQGTTVTVSS
VL: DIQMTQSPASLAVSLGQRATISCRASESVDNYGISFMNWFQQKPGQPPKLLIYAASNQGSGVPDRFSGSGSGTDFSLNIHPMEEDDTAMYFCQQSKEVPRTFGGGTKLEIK
notes: murine hybridoma mAb
[1]
  EC50: 0.47 nM
[2]
  EC50: 0.4 nM

B10: 3F1A11 (antibody, V domains shown)
VH: EVKLVESGPGLVKPSQSLSLTCTVTGYSITSDYAWNWIRQFPGNKLEWMGYISYNTYTSYNPSLKSRISVTRDTSKNQFFLQLKSVTIEDTATYFCAGGDYYGTGAVDYWGQGTTVTVSS
VL: EIVLTQSPLSLPVSLGDQASISCRSRQTLVHTNGNTYLDWYLQKPGQSPKLLIYKVSIRFSGVPDRFSGSRSGTDFTLKISRVEAEDLGIYYCFQGSHVPWTFGGGTKLEIK
notes: murine hybridoma mAb
[2]
  EC50: 0.41 nM

B11: 14A10C5 (antibody, V domains shown)
VH: EVKLVESGPGILQPSQTLSLTCSFSGFSLSTSGMGVSWIRQPSGKGLEWLAHIYWDDEKRYNPSLKSRLTISKDTSSNQVFLKITSVDTADTATYYCAREGSANWEAMDYWGQGTTVTVSS
VL: DIVMTQAALSLPVSLGDQASISCRSSQNIVYTNGITYLEWYLQKPGQSPKLLIYKVSNRFSGVPDRFSGSGSATDFTLKISRVEAEDLGVYYCFQSSHVPWTFGGGTKLEIK
notes: murine hybridoma mAb; also called 14A10CS
[2]
  EC50: 0.1 nM

B12: 10D2 (antibody, V domains shown)
VH: EVQLQQSGPELKKPGETVKISCKASGYTFTDYSMHWVKQAPGKGLKWMGWINTETGQPTYADDFKGRFAFSLETSASSAYLQINNLKNEDTATYFCTRTFYYDYVGDYWGQGTTVTVSS
VL: DIVMTQSHKFMSTSVGDRVSITCKASQDVSTAVAWYRQKPGQSPKLLIYWASTRHTGVPDRLTGSGSGTDFALTINSVQAEDLALYYCQQHSSTPYTFGGGTKLEIK
notes: murine hybridoma mAb
[1]
  EC50: 0.49 nM
[2]
  EC50: 2.54 nM
